One may read the IC50 as the concentration that inhibits the measured activity by half. As usually defined, the Kd is the equilibrium constant for the complex coming apart.

Where a chain is given by its changes, count along the chain named. “And” between values parts separate entries of the source, which are not always exact repeats. Identical values can stand only once. A value given as a limit tells only on which side of the number the result lay.

Assay [1] has as its target recombinant Murine CD40L (E. coli produced) (murine, UniProt P27548). Put plainly: biosensor competition: inhibition of Murine CD40L (0.5 µg/ml) binding to immobilised Murine CD40-Fc.
Assay [2] addresses Murine CD40L on the Th2 cell line D10.G4.1 (murine, UniProt P27548). The assay is described as follows: cell-based or functional assay.
In assay [3] the target is T1, TRAIL R2 expressed on the cell surface (human, UniProt O14763). The assay is described as follows: cell-based or functional assay.
Assay [4] addresses T1, TRAIL R2 expressed on the cell surface. The assay is described as follows: cell-based or functional assay. The source holds these as a separate data set.
For assay [5] the target is unchanged. The assay is described as follows: cell-based or functional assay. This is another data set of the same source.
For assay [6], the target named is TRAIL R2 (recombinant, form not given) (human, UniProt O14763, biotin (in the capture ELISA and the competition ELISA of Example 14)). The assay is described as follows: SPR (ProteOn XPR36), TRAIL R2 immobilised, equilibrium analysis.
The target in assay [7] is T1, TRAIL R2 expressed on the cell surface. The assay is described as follows: cell-based or functional assay. This is another data set of the same source.

B1: C4(M13) (designed binder)
chain: AIEVKDVTDTTALITWHDAFGYDFGCELTYGIKDVPGDRTTIDLPDHFHNYSIGNLKPDTEYEVSLICANDHGFDSNPAKETFTTGGGGSGGGGSGGGGSGGGGSGGGGSGGGGSGGGGSRLDAPGQIEVKDVTDTTALITWHDAFGYDFGCELTYGIKDVPGDRTTIDLPDHFHNYSIGNLKPDTEYEVSLICANDHGFDSNPAKETFTTGGGTLGHHHHHHHH
With B1, in assay [1], the IC50 is 5 nM and 6 nM. Moreover, the “IC50, inhibition of Murine CD40L-induced CD86 expression on CD19 gated B cells” value (“IC50, inhibition” below) in assay [2] is 100000 to 200000 nM.

B2: C1(M13) (designed binder)
chain: AIEVKDVTDTTALITWHDAFGYDFGCELTYGIKDVPGDRTTIDLPDHFHNYSIGNLKPDTEYEVSLICANDHGFDSNPAKETFTTAGGGGSRLDAPGQIEVKDVTDTTALITWHDAFGYDFGCELTYGIKDVPGDRTTIDLPDHFHNYSIGNLKPDTEYEVSLICANDHGFDSNPAKETFTTGGGTLGHHHHHHHH
For B2, the IC50 in assay [1] stood at 29 nM. In addition, in assay [2], the “IC50, inhibition” value is 100000 to 200000 nM.

B3: C2(M13) (designed binder)
chain: AIEVKDVTDTTALITWHDAFGYDFGCELTYGIKDVPGDRTTIDLPDHFHNYSIGNLKPDTEYEVSLICANDHGFDSNPAKETFTTGGGGSGGGGSGGGGSRLDAPGQIEVKDVTDTTALITWHDAFGYDFGCELTYGIKDVPGDRTTIDLPDHFHNYSIGNLKPDTEYEVSLICANDHGFDSNPAKETFTTGGGTLGHHHHHHHH
Take B3: the IC50 in assay [1] was 5 nM and 6 nM. The “IC50, inhibition” value in assay [2] is 100000 to 200000 nM.

B4: A3 (G6) (designed binder)
chain: SGGGGSAIEVKDVTDTTALITWAKPWVDPPPLWGCELAYGIKDVPGDRTTIDLQQKHTAYSIGNLKPDTEYEVSLICFDPYGMRSKPAKETFTTGGGGSGGGGSGGGGSAIEVKDVTDTTALITWAKPWVDPPPLWGCELAYGIKDVPGDRTTIDLQQKHTAYSIGNLKPDTEYEVSLICFDPYGMRSKPAKETFTTGGGGSGGGGSGGGGSAIEVKDVTDTTALITWAKPWVDPPPLWGCELAYGIKDVPGDRTTIDLQQKHTAYSIGNLKPDTEYEVSLICFDPYGMRSKPAKETFTTGGGGSGGGGSGGGGSAIEVKDVTDTTALITWAKPWVDPPPLWGCELAYGIKDVPGDRTTIDLQQKHTAYSIGNLKPDTEYEVSLICFDPYGMRSKPAKETFTTGGGGSGGGGSGTLGHHHHHHHH
On to B4, for which, in assay [3], the “EC50, killing of Jurkat cells” value was 0.05 nM and the “Maximum Inhibition %, Jurkat cells” value worked out at 83%. Further, in assay [4], the “EC50, killing of Colo205 cells” value was determined as 0.04 nM and the “Maximum Inhibition %, Colo205 cells” value turned out to be 97%.

B5: A5(G6) (designed binder)
chain: SGGGGSAIEVKDVTDTTALITWAKPWVDPPPLWGCELAYGIKDVPGDRTTIDLQQKHTAYSIGNLKPDTEYEVSLICFDPYGMRSKPAKETFTTGGGGSGGGGSGGGGSAIEVKDVTDTTALITWAKPWVDPPPLWGCELAYGIKDVPGDRTTIDLQQKHTAYSIGNLKPDTEYEVSLICFDPYGMRSKPAKETFTTGGGGSGGGGSGGGGSAIEVKDVTDTTALITWAKPWVDPPPLWGCELAYGIKDVPGDRTTIDLQQKHTAYSIGNLKPDTEYEVSLICFDPYGMRSKPAKETFTTGGGGSGGGGSGGGGSAIEVKDVTDTTALITWAKPWVDPPPLWGCELAYGIKDVPGDRTTIDLQQKHTAYSIGNLKPDTEYEVSLICFDPYGMRSKPAKETFTTGGGGSGGGGSGTGSAMASGGGGSAIEVKDVTDTTALITWAKPWVDPPPLWGCELAYGIKDVPGDRTTIDLQQKHTAYSIGNLKPDTEYEVSLICFDPYGMRSKPAKETFTTGGGGSGGGGSGGGGSAIEVKDVTDTTALITWAKPWVDPPPLWGCELAYGIKDVPGDRTTIDLQQKHTAYSIGNLKPDTEYEVSLICFDPYGMRSKPAKETFTTGGGGSGGGGSGGGGSAIEVKDVTDTTALITWAKPWVDPPPLWGCELAYGIKDVPGDRTTIDLQQKHTAYSIGNLKPDTEYEVSLICFDPYGMRSKPAKETFTTGGGGSGGGGSGGGGSAIEVKDVTDTTALITWAKPWVDPPPLWGCELAYGIKDVPGDRTTIDLQQKHTAYSIGNLKPDTEYEVSLICFDPYGMRSKPAKETFTTGGGGSGGGGSGTLGHHHHHHHH
On to B5, for which, in assay [3], the “EC50, killing of Jurkat cells” value was 0.0001 nM and the “Maximum Inhibition %, Jurkat cells” value stood at 100%. In assay [5], the “IC50 of cell killing, 786-0 cells (CellTiter-Glo)” value was greater than 10 nM; the “IC50 of cell killing, BT-649 cells (CellTiter-Glo)” value was greater than 10 nM; the “IC50 of cell killing, CaCo-2 cells (CellTiter-Glo)” value is 0.044 nM; the “IC50 of cell killing, HPAF-II cells (CellTiter-Glo)” value was 0.016 nM. For the same molecule, in assay [5], the “IC50 of cell killing, HT29 cells (CellTiter-Glo)” value worked out at 0.01 nM; the “IC50 of cell killing, Hep3B cells (CellTiter-Glo)” value worked out at 0.023 nM; the “IC50 of cell killing, Hep G2 cells (CellTiter-Glo)” value was determined as 0.04 nM; the “IC50 of cell killing, Hs766T cells (CellTiter-Glo)” value is greater than 10 nM. Moreover, in assay [5], the “IC50 of cell killing, LoVo cells (CellTiter-Glo)” value was 0.005 nM; the “IC50 of cell killing, NCI-H23 cells (CellTiter-Glo)” value was greater than 10 nM; the “IC50 of cell killing, NCI-H522 cells (CellTiter-Glo)” value was greater than 10 nM; the “IC50 of cell killing, SKHEP-1 cells (CellTiter-Glo)” value came out at 0.055 nM. In assay [5], the “IC50 of cell killing, SNB-75 cells (CellTiter-Glo)” value is greater than 10 nM; the “IC50 of cell killing, SNU-387 cells (CellTiter-Glo)” value is greater than 10 nM; the “IC50 of cell killing, SNU-398 cells (CellTiter-Glo)” value was greater than 10 nM; the “IC50 of cell killing, SNU-475 cells (CellTiter-Glo)” value was greater than 10 nM. In assay [5], the “IC50 of cell killing, SW820 cells (CellTiter-Glo)” value was greater than 10 nM; the “IC50 of cell killing, SW837 cells (CellTiter-Glo)” value was greater than 10 nM; the “IC50 of cell killing, T84 cells (CellTiter-Glo)” value came to 0.247 nM. Besides, in assay [4], the “EC50, killing of Colo205 cells” value is 0.0005 nM and the “Maximum Inhibition %, Colo205 cells” value was found to be 100%.

B6: 1C12 (designed binder)
chain: AIEVKDVTDTTALITWAKPEKWDGSIYGCELAYGIKDVPGDRTTIDLNSRHTAYSIGNLKPDTEYEVSLICFTPYGAKSNPAKETFTTGGGTLGHHHHHHHH
For the molecule B6, the Kd in assay [6] was 4130 nM.

B7: G3 (designed binder)
chain: B6 chain with G24P, S25P, I26L, Y27W
Take B7: in assay [6], the “Fold Improvement (Kd, against lead clone 1C12)” value (“Fold Improvement” for short) was found to be 10 fold and the Kd was 422 nM.

B8: A5(1E11) (designed binder)
chain: SGGGGSAIEVKDVTDTTALITWAKPWVDPPPLWGCELAYGIKDVPGDRTTIDLQQKHTAYSIGNLKPDTEYEVSLICFDPYGAKSNPAKETFTTGGGGSGGGGSGGGGSAIEVKDVTDTTALITWAKPWVDPPPLWGCELAYGIKDVPGDRTTIDLQQKHTAYSIGNLKPDTEYEVSLICFDPYGAKSNPAKETFTTGGGGSGGGGSGGGGSAIEVKDVTDTTALITWAKPWVDPPPLWGCELAYGIKDVPGDRTTIDLQQKHTAYSIGNLKPDTEYEVSLICFDPYGAKSNPAKETFTTGGGGSGGGGSGGGGSAIEVKDVTDTTALITWAKPWVDPPPLWGCELAYGIKDVPGDRTTIDLQQKHTAYSIGNLKPDTEYEVSLICFDPYGAKSNPAKETFTTGGGGSGGGGSGTGSAMASGGGGSAIEVKDVTDTTALITWAKPWVDPPPLWGCELAYGIKDVPGDRTTIDLQQKHTAYSIGNLKPDTEYEVSLICFDPYGAKSNPAKETFTTGGGGSGGGGSGGGGSAIEVKDVTDTTALITWAKPWVDPPPLWGCELAYGIKDVPGDRTTIDLQQKHTAYSIGNLKPDTEYEVSLICFDPYGAKSNPAKETFTTGGGGSGGGGSGGGGSAIEVKDVTDTTALITWAKPWVDPPPLWGCELAYGIKDVPGDRTTIDLQQKHTAYSIGNLKPDTEYEVSLICFDPYGAKSNPAKETFTTGGGGSGGGGSGGGGSAIEVKDVTDTTALITWAKPWVDPPPLWGCELAYGIKDVPGDRTTIDLQQKHTAYSIGNLKPDTEYEVSLICFDPYGAKSNPAKETFTTGGGGSGGGGSGTLGHHHHHHHH
Turning to B8, in assay [7], the “EC50, killing of H2122 cells” value was determined as 0.0006 nM and the “Maximum Inhibition %, H2122 cells” value is 97%.

B9: C4 (designed binder)
chain: AIEVKDVTDTTALITWAKPWVDPPPLWGCELAYGIKDVPGDRTTIDLQQKHTAYSIGNLKPDTEYEVSLICFDPYNKRNVPAKETFTTGGGTLGHHHHHHHH
Take B9: in assay [6], the “Fold Improvement” value turned out to be 83 fold and the Kd was found to be 50 nM.

B10: G6 (designed binder)
chain: B9 chain with N76G, K77M, N79S, V80K
As for B10, in assay [6], the “Fold Improvement” value is 96 fold and the Kd was 43 nM.

B11: A4(1E11) (designed binder)
chain: SGGGGSAIEVKDVTDTTALITWAKPWVDPPPLWGCELAYGIKDVPGDRTTIDLQQKHTAYSIGNLKPDTEYEVSLICFDPYGAKSNPAKETFTTGGGGSGGGGSGGGGSAIEVKDVTDTTALITWAKPWVDPPPLWGCELAYGIKDVPGDRTTIDLQQKHTAYSIGNLKPDTEYEVSLICFDPYGAKSNPAKETFTTGGGGSGGGGSGGGGSAIEVKDVTDTTALITWAKPWVDPPPLWGCELAYGIKDVPGDRTTIDLQQKHTAYSIGNLKPDTEYEVSLICFDPYGAKSNPAKETFTTGGGGSGGGGSGGGGSAIEVKDVTDTTALITWAKPWVDPPPLWGCELAYGIKDVPGDRTTIDLQQKHTAYSIGNLKPDTEYEVSLICFDPYGAKSNPAKETFTTGGGGSGGGGSGTGSAMASGGGGSAIEVKDVTDTTALITWAKPWVDPPPLWGCELAYGIKDVPGDRTTIDLQQKHTAYSIGNLKPDTEYEVSLICFDPYGAKSNPAKETFTTGGGGSGGGGSGGGGSAIEVKDVTDTTALITWAKPWVDPPPLWGCELAYGIKDVPGDRTTIDLQQKHTAYSIGNLKPDTEYEVSLICFDPYGAKSNPAKETFTTGGGGSGGGGSGTLGHHHHHHHH
As for B11, in assay [7], the “EC50, killing of H2122 cells” value stood at 0.0009 nM and the “Maximum Inhibition %, H2122 cells” value is 97%.

B12: C3(M13) (designed binder)
chain: AIEVKDVTDTTALITWHDAFGYDFGCELTYGIKDVPGDRTTIDLPDHFHNYSIGNLKPDTEYEVSLICANDHGFDSNPAKETFTTGGGGSGGGGSGGGGSGGGGSGGGGSRLDAPGQIEVKDVTDTTALITWHDAFGYDFGCELTYGIKDVPGDRTTIDLPDHFHNYSIGNLKPDTEYEVSLICANDHGFDSNPAKETFTTGGGTLGHHHHHHHH
Turning to B12, the IC50 in assay [1] is 5 nM and 6 nM. The “IC50, inhibition” value in assay [2] was 100000 to 200000 nM.

B13: M13 (M13) (designed binder)
chain: AIEVKDVTDTTALITWHDAFGYDFGCELTYGIKDVPGDRTTIDLPDHFHNYSIGNLKPDTEYEVSLICANDHGFDSNPAKETFTTGGGTLGHHHHHHHH
As for B13, the IC50 in assay [1] was found to be 71 nM.

For the origin of these results see patent publication US9212231B2, “TRAIL R2-specific multimeric scaffolds” (MEDIMMUNE, LLC, dated 2015).
